Results: the Human Domainome abundance scans (Beltran et al. 2025)

B1: Calcium-binding protein 2, residues 155 to 219; numbered along this chain, Q9NPB3 (parent)
chain: RELRDAFREFDTNGDGRISVGELRAALKALLGERLSQREVDEILQDVDLNGDGLVDFEEFVRMMS

Variants of: B1
Experiment: abundance fitness (aPCA) (normalised: wild type 0, dead -1); higher = more abundant; growth selection in yeast, the domain comes from the species named
Conditions: Homo sapiens

Abundance fitness: each site, then its substitutions
V61: Y -0.013; F -0.134; L -0.012; H 0.011; T -0.044; S 0.128; A -0.054; G -0.005; R -0.04; C -0.014; M -0.325; W -0.114; K -0.029; P -0.445; Q -0.051; D 0.009; I -0.149; E 0.012
V55: C -0.023; N -0.714; H -0.382; Q -0.391; A -0.189; F 0.048; W -0.192; S -0.394; M -0.338; I -0.185; L -0.028; G -0.829; T -0.038; R -0.78; K -0.691; E -1.02; D -1.16; P -0.874
E58: F -0.331; L -0.008; S -0.019; H -0.008; W -0.431; V -0.105; Y -0.43; G -0.003; P -0.025; R -0.117; T -0.088; M -0.202; K 0.102; Q -0.102; D -0.061; C -0.576; A -0.077
G51: R -0.085; Y -0.107; P 0.151; M 0.047; W -0.301; T 0.006; V 0.003; L 0.06; N 0.098
R62: P -0.37; S -0.065; Q -0.145; W -0.102; Y -0.2; N -0.111; G -0.025; D 0.077; C -0.124; H -0.233; E -0.307; V -0.074; L -0.21; F -0.218; T -0.182
M64: P -0.555; Y 0.209; Q -0.041; I -0.014; K -0.075; S 0.174; G 0.008; H 0.098; L -0.025; E 0.301; C 0.067; N 0.171; D -0.255; V 0.157; T 0.015; R 0.109; W 0.104
F60: Q -0.899; H -0.875; V -0.278; W -0.012; K -1.08; R -0.798; L -0.228; M -0.116; I 0.116; A -0.471; E -0.672; T -0.306; S -0.326; P -0.896; D -0.71; C -0.176
M63: D -0.323; R -0.404; C -0.058; K -0.459; N 0.057; A -0.048; S -0.158; P -0.614; H 0.05; W -0.003; L 0.101; V 0.047; Y -0.108; E -0.721; G -0.16; T 0.102; F -0.081; Q -0.035
L54: R -0.283; V -0.241; C -0.21; T 0.012; H -0.292; F -0.212; W -0.346; G 0.099; K -0.207; A -0.211; E -0.07; Y -0.177; Q -0.088; P -0.291; I -0.223; D -0.208
E59: I -0.051; H -0.164; M 0.059; V 0.083; D -0.405; K -0.092; S -0.075; Y -0.157; L 0.071; F -0.146; A -0.072; W -0.259; P -0.1; T 0.088; N -0.282; R -0.089; C 0.033; Q -0.025; G -0.171
D56: G -0.031; K -0.103; Y -0.198; I -0.12; T 0.019; A 0.002; C -0.321; E 0.12; Q -0.153; L -0.201; S 0.078; R -0.088; P 0.009; H -0.015; N -0.022; F -0.862; M -0.262; W -0.531; V 0.044
D52: S -0.133; H -0.049; L -0.108; E 0.043; R -0.149; M -0.168; C -0.124; K -0.094; Q -0.121; T -0.196; I -0.126; A 0.009; Y -0.18; P -0.145; F -0.414
G53: R -0.397; S -0.05; P -0.188; V -0.063; M -0.141; I -0.147; T -0.107; D -0.088; E -0.199; Y -0.012; H 0.011; W -0.361; A -0.115; C -0.121; L -0.23
